Consider 1 molecule from US12702697B2, “Compositions and methods for treatment of headache disorders and neuropathic pain” (Washington University, priority 2019, dated 2026).

In assay [1] the test system is IFNγ secretion by splenocytes. In words: IFNγ ELISA and ELISPOT of CD3/CD28-stimulated splenocytes. The format is cell-based, mouse. The procedure: To quantify interferon g (IFNγ) secretion, splenocytes were plated in 24-well plates (5 3 106 per well) and stimulated with antiCD3 and anti-CD28 antibodies ([…]) in 1 mL complete RPMI1640 media overnight. IFNγ in the supernatants were quantified by ELISA (430901; Biolegend).
ELISPOT assay was performed to determine the number of INFg-secreting cells. Splenocytes were plated at 5×10^4 cells per well and incubated overnight with RPMI1640 media containing anti-CD3 and anti-CD28 antibodies ([…]) for stimulation. IFNg was detected using a colorimetric reagent kit (R&D SEL485 and SEL002). Following development, images were captured and analyzed on the ImmunoSpot7.0 plate reader (Cellular Technologies, Kennesaw, GA).

Assay [2] relates to SNI-induced punctate and dynamic allodynia in mice. In words: Mouse model of spared nerve injury (SNI): punctate (von Frey) and dynamic (brush) allodynia. The assay is classed as in vivo. The text has this: Mouse model of SNI. Mice were anesthetized with 3-4% isoflurane in an induction chamber until losing the righting reflex. Anesthesia was maintained by 1.5-2% isoflurane through a nose cone. After skin and muscle incision to expose the right sciatic nerve in the thigh region, we tightly ligated two branches (sural and common peroneal nerves) with 7-0 silk suture (Braintree Scientific, Braintree, MA) and transected ~2 mm of the nerve distal to the ligature. The third branch of the sciatic nerve (tibial nerve) was left intact, and caution was taken not to stretch or contact the spared nerve. In sham mice the right sciatic nerve and its branches were exposed but were not touched. After the surgery, the overlying muscle and skin layers were closed separately with 6-0 vicryl suture and interrupted nylon suture for the skin incision, respectively.
Response to punctate mechanical stimuli on the hindpaw. Mice were habituated in individual clear plexiglass boxes (11×11×15 cm) for 1-2 hours. A series of calibrated von Frey filaments were used to apply mechanical stimuli to the medial plantar surface of the hindpaw (the tibial nerve territory). We used the up-down paradigm to determine the 50% withdrawal threshold.
Response to dynamic mechanical stimuli on the hindpaw. Mice were habituated in individual clear plexiglass boxes (11×11×15 cm) for 1-2 hours. The medial plantar surface of the hindpaw (tibial nerve territory) was stimulated by light stroking with a blunt paintbrush (5/0, Princeton Art & Brush Co., Princeton, NJ) from heel to toe at ~2 cm/second. The behavior was scored as described previously. Score 0 indicates no evoked movement or lifting the stimulated paw for less than 1 second. Score 1 indicates a sustained lifting (more than 2 seconds) of the stimulated paw toward the body or a single gentle flinching of the stimulated paw. Score 2 indicates a strong lateral lift of the stimulated paw above the level of the body or a startle-like jump. Score 3 indicates multiple flinching or licking of the stimulated paw. Each paw was tested 3 times, with minimal interval of 3 minutes. The scores of 3 tests were averaged to indicate the response to dynamic mechanical stimuli.
Ld-IL2 treatment. Recombinant mouse IL2 (carrier-free, Biolegend, San Diego, CA) was freshly diluted from the stock (0.5-1 mg/ml aliquots at −80° C.) every day. Each mouse received daily intraperitoneal (i.p.) injection of 1 μg IL2 in 100 μl saline at various durations. The control mice received daily i.p. injections of 100 μl saline. Note that on the days that the mouse behaviors were tested, IL2 was always injected after completing the behavioral tests. […]

The test system of assay [3] is Treg cells and CD3+ T cells in dura, TG and DRG. In words: Immunohistochemistry of CD3+ T cells and EGFP+ Treg cells in dura, TG, DRG and cervical/medullary dorsal horn. The format is in vivo, mouse. The procedure:
Tissue preparation, immunohistochemistry, and image analysis. Mice were euthanized with i.p. injection of barbiturate (200 mg/kg) and were transcardially perfused with warm 0.1 M phosphate buffered saline (pH 7.2) followed by cold 4% formaldehyde in 0.1 M phosphate buffer (pH 7.2) for fixation. Trigeminal ganglia, lumbar L4 DRG, and the tissues containing the cervical/medullary dorsal horn (from obex to C3 cervical spinal cord) were collected and sectioned at […] in the transverse plane, collected on Superfrost Plus glass slides in sequence and stored at […]
The dura was carefully dissected from the skull using forceps and stained as whole mount. T cells were identified by the rat anti-CD3 antibody (clone 17A2, 1:200; eBioscience, San Diego, CA), and Treg cells were identified with the chicken anti-EGFP (1:1000; AVES Lab, Tigard, OR) antibody in tissues from DEREG mice. […] To quantify CD31 T cells and Treg cells on the dura, we took random, nonoverlapping images (10 per mouse) in areas adjacent to the middle meningeal artery (MMA). To quantify T cells and Treg cells in TG, DRG, and cervical/medullary dorsal horn, all cells on individual sections were counted, and the number was multiplied by 4 to obtain the total number of cells per ganglion in each mouse. […] Representative images were adjusted for contrast and brightness using the same parameter within individual experiments. No other manipulations were made to the images. Image analysis was performed with experimenters blinded to the experimental groups.

In the next assay the test system is Treg cells. In words: Flow cytometry of T-cell subsets in peripheral blood, cervical LNs and spleen. The format is in vivo, mouse. The text has this:
Blood, spleen, and cervical lymph node cell preparation, antibody staining, flow cytometry, and enzyme-linked immunosorbent assay (ELISA). Adult male DEREG and C57BL/6J mice received 15 daily injections of saline or IL2. About […] blood was collected from each mouse by submandibular bleeding. Mice used for blood collection were not used in the behavioral tests. Spleen and cervical LN tissues were ground and filtered through a sterile […] cell strainer. After lysis of red blood cells (420301; Biolegend), cells were pelleted and resuspended for antibody staining, ELISA, and ELISPOT assay. Live cells were counted by the Vi-CELL Automated Cell Viability Analyzer (Beckman, Chaska, MN).
About 2×10^6 suspension cells were stained with the following antibodies from Biolegend that recognizes mouse CD3e (clone 145-2C11), CD4 (clone GK1.5 and RM4-5), CD8 (clone 53-6.7), and CD25 (clone PC61). The percentages of individual cell phenotypes were determined using flow cytometric analysis. Data were collected with FACScan (Becton Dickinson, Franklin Lakes, NJ) and analyzed with CellQuest Pro (Becton Dickinson) and Rainbow X Alias (Cytek) softwares.

Setting [4] is: 15 days of ld-IL2, male DEREG mice.
The mark [5] stands for this setting: 15 days of ld-IL2, C57BL/6J males.

B1: ld-IL2: Recombinant mouse IL2 (carrier-free; Biolegend), given as daily low-dose i.p. injection (protein, UniProt P04351 21-169, looked up)
Interleukin-2: APTSSSTSSSTAEAQQQQQQQQQQQQHLEQLLMDLQELLSRMENYRNLKLPRMLTFKFYLPKQATELKDLQCLEDELGPLRHVLDLTQSKSFQLEDAENFISNIRVTVVKLKGSDNTFECQFDDESATVVDFLRRWIAFCQSIISTSPQ
In the case of B1, the “amount of CD3/CD28 stimulation-induced IFNγ secretion” value in assay [1] (ELISA, cells from IL-2-treated mice) was “significantly reduced”. Moreover, the “number of splenocytes secreting IFNγ” value in assay [1] (ELISPOT, 15 days of ld-IL2) is recorded as “not altered”. In addition, the “days of ld-IL2 treatment after which the mechanical threshold started to reverse” value in assay [2] (3-week ld-IL2 started 7 days post-SNI, ipsilateral paw) was found to be 3 days. Besides, the “basal punctate and dynamic mechanical sensitivity” value in assay [2] (5 days of ld-IL2 injections before SNI, female Swiss Webster) is “not altered”. In addition, the “mechanical threshold of SNI+IL2 versus sham+IL2 group” value in assay [2] (after 7 days of IL2 treatment (day 14-28)) is “not different”. In addition, in assay [2] (after 7 days of IL2 treatment (day 15-29)), the dynamic allodynia entry is recorded as “completely reversed”. Also, the “integrated AOC of withdrawal threshold between day 10 and 28 post-SNI versus SNI+saline” value in assay [2] (delayed ld-IL2) is recorded as “significantly lower”. Also, the “integrated AOC of dynamic allodynia score versus SNI+saline” value in assay [2] (delayed ld-IL2, between day 10 and 28 post-SNI) is recorded as “significantly lower”. The “responses to brush stimuli of the contralateral paw and of sham mice” value in assay [2] (ld-IL2) is “did not change”. In addition, in assay [2] (ld-IL2 1 μg/mouse/day i.p. from 5 days before to 21 days post-SNI (saline: threshold about 20% of baseline)), the “SNI-caused reduction of the withdrawal threshold” value is recorded as 50%. Besides, in assay [2] (ld-IL2, SNI mice), the “mechanical threshold of the contralateral (left) paw” value is “did not change”. Further, in assay [2] (ld-IL2 pretreatment), the “development of hyper-sensitivity to brush stimuli (dynamic allodynia)” value was “prevents the development” and the “magnitude of punctate allodynia (AOC day 0 to day 22 post-SNI)” value is on record as “significantly attenuated”. Besides, the “frequency of Treg cells among CD3+ cells in the dura” value in assay [3] (15 days of ld-IL2 (5% without)) worked out at 20%. The “increase of the number of EGFP+ Treg cells in the TG” value in assay [3] (15 days of ld-IL2, female DEREG mice) stood at 9 fold. In assay [3] (setting [4]), the “increase in the density of EGFP+ Treg cells in the dura surrounding the MMA” value was 4 fold and the “increase in the number of EGFP+ Treg cells in DRG” value is reported as 4 fold. Besides, the “percentage of EGFP+ Treg cells in the cervical LNs” value in the assay with Treg cells (15 daily ld-IL2 injections, male DEREG mice) is “increased significantly”. Further, in the assay on Treg cells (setting [5]), the “number and frequency of CD25+CD4+ Treg cells in the spleen” value was “doubled”; the “number of CD8+ cells in the spleen” value is “increased only slightly”. Moreover, the “increase of the frequency of EGFP+ Treg cells in the peripheral blood” value in the assay on Treg cells (after 5 daily ld-IL2 injections i.p., male DEREG mice) is reported as “more than 100%”. Further, in the assay with Treg cells (daily ld-IL2, 15 days), the “frequencies of CD4+ and CD3+ T cells in the blood or LNs” value is on record as “not altered”.
